38 sequences from the supplement of paper PMC7877785 can be followed below.

± gives the uncertainty stated by the source.

A short description of the data set: self-splicing fitness, log relative to wild type (ln ratio); higher = more splicing; Tetrahymena group I intron in knt gene, E. coli kanamycin selection, DiMSum; sequences stand for … in CUCUCU…GGAGGGAAAAGUUAUCAGGCAUGCACCUGGUAGCUAGUCUUUAAACCAAUAGAUUGCAUCGGUUUAAAAGGCAAGACCGUCAAAUUGCGGGAAAGGGGUCAACAGCCGUUCAGUACCAAGUCUCAGGGGAAACUUUGAGAUGGCCUUGCAAAGGGUAUGGUAAUAAGCUGACGGACAUGGUCCUAACCACGCAGCCAAGUCCUAAGUCAACAGAUCUUCUGUUGAUAUGGAUGCAGUUCACAGACUAAAUGUCGGUCGGGGAAGAUGUAUUCUUCUCAUAAGAUAUAGUCGGACCUCUCCUUAAUGGGAGCUAGCGGAUGAAGUGAUGCAACACUGGAGCCGCUGGGAACUAAUUUGUAUGCGAAAGUAUAUUGAUUAGUUUUGGAGUACUCGUGGUCG
Summed up: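 Colonies from six replicate transformations of E. coli BL21(DE3) were pooled and amplicon-sequenced on an Illumina HiSeq 2500. The library placed an intron with all eight P1ex-region nucleotides randomised inside the knt kanamycin-resistance gene on pET-22b(+), and cells grew overnight at 37°C or 30°C on LB agar with or without 25 μg/mL kanamycin (plus 100 μg/mL carbenicillin, 50 μM IPTG, 0.2% rhamnose). Fitness is the DiMSum error-weighted combination of wild-type-normalised replicate fold changes, kanamycin versus none.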

Take GAACAGCAAUAUUACGUUAU: the “self-splicing fitness (ln)” value (30 °C) was -2.01 ± 0.066 and the “self-splicing fitness (ln)” value (37 °C) was -1.13 ± 0.077. For the sequence GAACAGCAAUAUUACGUUGU, the “self-splicing fitness (ln)” value (30 °C) is -3.8 ± 0.21 and the “self-splicing fitness (ln)” value (37 °C) was -2.24 ± 0.12. As for GAAGAGCAAUAUUACGAAAC, the “self-splicing fitness (ln)” value (30 °C) is -2.57 ± 0.27 and the “self-splicing fitness (ln)” value (37 °C) was -1.38 ± 0.39. With GAAGAGCAAUAUUACGAGCU, the “self-splicing fitness (ln)” value (30 °C) is -4.07 ± 0.21 and the “self-splicing fitness (ln)” value (37 °C) is -1.61 ± 0.14. For the sequence GAAGAGCAAUAUUACGAGGG, the “self-splicing fitness (ln)” value is, setting by setting: (30 °C) -3.54 ± 0.2; (37 °C) -3.02 ± 0.28.

Turning to GAAGAGCAAUAUUACGAGGU, the “self-splicing fitness (ln)” value is, setting by setting: (30 °C) -4.02 ± 0.39; (37 °C) -3.52 ± 0.33.

For the sequence GAAGAGCAAUAUUACGAGUC, the “self-splicing fitness (ln)” value by setting is: (30 °C) -4.22 ± 0.46; (37 °C) -2.8 ± 0.47. Regarding GAAGAGCAAUAUUACGCUGG, the “self-splicing fitness (ln)” value (30 °C) is -1.92 ± 0.24.

Take GAAGAGCAAUAUUACGCUUU: the “self-splicing fitness (ln)” value runs as follows: (30 °C) -4.12 ± 0.3; (37 °C) -1.91 ± 0.28. For the sequence GAAGAGCAAUAUUACGGAGG, the “self-splicing fitness (ln)” value runs as follows: (30 °C) -2.48 ± 0.2; (37 °C) -2.01 ± 0.31. Regarding GAAGAGCAAUAUUACGGCCU, the “self-splicing fitness (ln)” value is, setting by setting: (30 °C) -1.15 ± 0.14; (37 °C) -0.824 ± 0.19. GAAGAGCAAUAUUACGGCUC: the “self-splicing fitness (ln)” value was -1.85 ± 0.24 (30 °C) and -2.06 ± 0.3 (37 °C). Consider GAAGAGCAAUAUUACGGUUG, for which the “self-splicing fitness (ln)” value is, setting by setting: (30 °C) -3.86 ± 0.35; (37 °C) -2.18 ± 0.38. Taken in the same sequence, the figures for GAAGAGCAAUAUUACGUAGC were -2.27 ± 0.21 and -2.31 ± 0.21. On to GAAGAGCAAUAUUACGUAUC, for which the “self-splicing fitness (ln)” value is -3.42 ± 0.21 (30 °C) and -3.41 ± 0.22 (37 °C). Take GAAGAGCAAUAUUACGUCAA: the “self-splicing fitness (ln)” value is, setting by setting: (30 °C) -3.04 ± 0.27; (37 °C) -2.16 ± 0.22. As for GAAGAGCAAUAUUACGUCAC, where the note is “37 °C”, the “self-splicing fitness (ln)” value is -2.13 ± 0.23. Regarding GAAGAGCAAUAUUACGUCGA, the “self-splicing fitness (ln)” value (30 °C) was -1.47 ± 0.21 and the “self-splicing fitness (ln)” value (37 °C) was -1.76 ± 0.31. On to GAAGAGCAAUAUUACGUCGG, for which the “self-splicing fitness (ln)” value is, setting by setting: (30 °C) -3.36 ± 0.3; (37 °C) -2.37 ± 0.3.

As for GAAGAGCAAUAUUACGUGCC, the “self-splicing fitness (ln)” value was -3.3 ± 0.19 (30 °C) and -1.81 ± 0.23 (37 °C). Take GAAGAGCAAUAUUACGUGGC: the “self-splicing fitness (ln)” value was -2.97 ± 0.24 (30 °C) and -3.01 ± 0.33 (37 °C). As to GAAGAGCAAUAUUACGUGGG, the “self-splicing fitness (ln)” value (30 °C) was -3.22 ± 0.16 and the “self-splicing fitness (ln)” value (37 °C) is -3.05 ± 0.2. Turning to GAAGAGCAAUAUUACGUUCC, the “self-splicing fitness (ln)” value is -4.33 ± 0.28 (30 °C) and -2.04 ± 0.31 (37 °C). As to GAAGAGCAAUAUUACGUUGA, the “self-splicing fitness (ln)” value runs as follows: (30 °C) -3.21 ± 0.19; (37 °C) -2.63 ± 0.2. Consider GAAGAGCAAUAUUACGUUGU, for which the “self-splicing fitness (ln)” value is -3.56 ± 0.28 (30 °C) and -2.83 ± 0.24 (37 °C). Regarding GAAGAGCAAUAUUACGUUUA, the “self-splicing fitness (ln)” value was -1.61 ± 0.15 (30 °C) and -2.56 ± 0.2 (37 °C). GAAUAGCAAUAUUACGACCU: the “self-splicing fitness (ln)” value is, setting by setting: (30 °C) -0.378 ± 0.11; (37 °C) 0.363 ± 0.13.

As for GAAUAGCAAUAUUACGACGG, the “self-splicing fitness (ln)” value is, setting by setting: (30 °C) -3.32 ± 0.36; (37 °C) -1.1 ± 0.19. On to GAAUAGCAAUAUUACGAGGA, for which the “self-splicing fitness (ln)” value reads like this: (30 °C) -2.85 ± 0.33; (37 °C) -1.5 ± 0.18. Regarding GAAUAGCAAUAUUACGAGGU, the “self-splicing fitness (ln)” value was -4 ± 0.36 (30 °C) and -2.61 ± 0.24 (37 °C).

Turning to GAAUAGCAAUAUUACGAGUA, the “self-splicing fitness (ln)” value is, setting by setting: (30 °C) -2.44 ± 0.17; (37 °C) -1.98 ± 0.17. Consider GAAUAGCAAUAUUACGAUAA, for which the “self-splicing fitness (ln)” value runs as follows: (30 °C) -1.51 ± 0.1; (37 °C) -0.77 ± 0.13. Regarding GAAUAGCAAUAUUACGAUCG, the “self-splicing fitness (ln)” value runs as follows: (30 °C) 1.29 ± 0.19; (37 °C) -0.178 ± 0.27.

In the case of GAAUAGCAAUAUUACGCAGC, the “self-splicing fitness (ln)” value (30 °C) was -2.72 ± 0.2 and the “self-splicing fitness (ln)” value (37 °C) was -1.93 ± 0.2. For the sequence GAAUAGCAAUAUUACGCCCA, the “self-splicing fitness (ln)” value runs as follows: (30 °C) -0.91 ± 0.17; (37 °C) -0.732 ± 0.24.

For GAAUAGCAAUAUUACGCGGU, the “self-splicing fitness (ln)” value is, setting by setting: (30 °C) -2.24 ± 0.15; (37 °C) -2.75 ± 0.27.

For the sequence GAAUAGCAAUAUUACGCUCC, the “self-splicing fitness (ln)” value (37 °C) is -1.37 ± 0.33.

In the case of GAAUAGCAAUAUUACGCUCG, the “self-splicing fitness (ln)” value (30 °C) came out at 0.178 ± 0.15 and the “self-splicing fitness (ln)” value (37 °C) is -0.999 ± 0.16.
